{
  "source": "patent US20140030416A1",
  "assay_in_all_cases": "cell-based or functional assay",
  "key": {"[1]": {"target": "Trypsin-like protease (TL1) from Fusarium oxysporum (Fusarium oxysporum) (UniProt P35049)", "sequence (P35049 25-248 limits assumed)": "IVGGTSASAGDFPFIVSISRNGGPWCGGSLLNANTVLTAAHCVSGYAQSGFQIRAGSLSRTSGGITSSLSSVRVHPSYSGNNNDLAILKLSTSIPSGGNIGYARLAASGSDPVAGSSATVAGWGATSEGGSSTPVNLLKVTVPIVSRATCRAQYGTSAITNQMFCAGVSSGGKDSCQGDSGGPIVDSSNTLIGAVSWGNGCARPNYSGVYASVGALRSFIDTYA"}, "[2]": {"target": "porcine trypsin (porcine) (UniProt P00761)"}, "[3]": {"target": "bovine trypsin (bovine) (UniProt P00760)"}},
  "data": [
    {"substance": "Bowman-Birk inhibitor (Cat # T-9777, Sigma-Aldrich) (from UniProt P01055 40-110)", "values": [
      {"measurement": "% residual activity at 0.00048 mg/ml Bowman-Birk inhibitor", "setting": "[1]", "value": 117, "unit": "%"},
      {"measurement": "% residual activity at 0.00097 mg/ml Bowman-Birk inhibitor", "setting": "[1]", "value": 111, "unit": "%"},
      {"measurement": "% residual activity at 0.00195 mg/ml Bowman-Birk inhibitor", "setting": "[1]", "value": 103, "unit": "%"},
      {"measurement": "% residual activity at 0.0039 mg/ml Bowman-Birk inhibitor", "setting": "[1]", "value": 109, "unit": "%"},
      {"measurement": "% residual activity at 0.0078 mg/ml Bowman-Birk inhibitor", "setting": "[1]", "value": 82, "unit": "%"},
      {"measurement": "% residual activity at 0.0156 mg/ml Bowman-Birk inhibitor", "setting": "[1]", "value": 61, "unit": "%"},
      {"measurement": "% residual activity at 0.0313 mg/ml Bowman-Birk inhibitor", "setting": "[1]", "value": 32, "unit": "%"},
      {"measurement": "% residual activity at 0.0625 mg/ml Bowman-Birk inhibitor", "setting": "[1]", "value": 13, "unit": "%"},
      {"measurement": "% residual activity at 0.125 mg/ml Bowman-Birk inhibitor", "setting": "[1]", "value": 5.8, "unit": "%"},
      {"measurement": "% residual activity at 0.25 mg/ml Bowman-Birk inhibitor", "setting": "[1]", "value": 2.2, "unit": "%"},
      {"measurement": "% residual activity at 0.5 mg/ml Bowman-Birk inhibitor", "setting": "[1]", "value": 0.8, "unit": "%"},
      {"measurement": "% residual activity at 0.00048 mg/ml Bowman-Birk inhibitor", "setting": "[2]", "value": 11, "unit": "%"},
      {"measurement": "% residual activity at 0.00097 mg/ml Bowman-Birk inhibitor", "setting": "[2]", "value": 9.4, "unit": "%"},
      {"measurement": "% residual activity at 0.00195 mg/ml Bowman-Birk inhibitor", "setting": "[2]", "value": 8.3, "unit": "%"},
      {"measurement": "% residual activity at 0.0039 mg/ml Bowman-Birk inhibitor", "setting": "[2]", "value": 6.2, "unit": "%"},
      {"measurement": "% residual activity at 0.0078 mg/ml Bowman-Birk inhibitor", "setting": "[2]", "value": 3.2, "unit": "%"},
      {"measurement": "% residual activity at 0.0156 mg/ml Bowman-Birk inhibitor", "setting": "[2]", "value": 2.2, "unit": "%"},
      {"measurement": "% residual activity at 0.0313 mg/ml Bowman-Birk inhibitor", "setting": "[2]", "value": 1, "unit": "%"},
      {"measurement": "% residual activity at 0.0625 mg/ml Bowman-Birk inhibitor", "setting": "[2]", "value": 6.4, "unit": "%"},
      {"measurement": "% residual activity at 0.125 mg/ml Bowman-Birk inhibitor", "setting": "[2]", "value": 0.2, "unit": "%"},
      {"measurement": "% residual activity at 0.25 mg/ml Bowman-Birk inhibitor", "setting": "[2]", "value": 0.1, "unit": "%"},
      {"measurement": "% residual activity at 0.5 mg/ml Bowman-Birk inhibitor", "setting": "[2]", "value": 0.1, "unit": "%"},
      {"measurement": "% residual activity at 0.00048 mg/ml Bowman-Birk inhibitor", "setting": "[3]", "value": 6.9, "unit": "%"},
      {"measurement": "% residual activity at 0.00097 mg/ml Bowman-Birk inhibitor", "setting": "[3]", "value": 5.3, "unit": "%"},
      {"measurement": "% residual activity at 0.00195 mg/ml Bowman-Birk inhibitor", "setting": "[3]", "value": 0.1, "unit": "%"},
      {"measurement": "% residual activity at 0.0039 mg/ml Bowman-Birk inhibitor", "setting": "[3]", "value": -0.4, "unit": "%"},
      {"measurement": "% residual activity at 0.0078 mg/ml Bowman-Birk inhibitor", "setting": "[3]", "value": 0, "unit": "%"},
      {"measurement": "% residual activity at 0.0156 mg/ml Bowman-Birk inhibitor", "setting": "[3]", "value": -1.5, "unit": "%"},
      {"measurement": "% residual activity at 0.0313 mg/ml Bowman-Birk inhibitor", "setting": "[3]", "value": 0.1, "unit": "%"},
      {"measurement": "% residual activity at 0.0625 mg/ml Bowman-Birk inhibitor", "setting": "[3]", "value": 0, "unit": "%"},
      {"measurement": "% residual activity at 0.125 mg/ml Bowman-Birk inhibitor", "setting": "[3]", "value": 0, "unit": "%"},
      {"measurement": "% residual activity at 0.25 mg/ml Bowman-Birk inhibitor", "setting": "[3]", "value": 0, "unit": "%"},
      {"measurement": "% residual activity at 0.5 mg/ml Bowman-Birk inhibitor", "setting": "[3]", "value": 0, "unit": "%"}
    ]}
  ]
}
